Our source for the Kd values is paper PMC3202338.

Usually Kd stands for the concentration at which binding is half-saturated.

In test [1] the target is mero-CFP-PAcKer [GFP: P42212]. The experiment in a line: other fluorescence titration.
In test [2] the target is Bodipy conjugated IS_helix (Ser-36 mutated to cysteine). Description: fluorescence polarisation. Background: Fluorescence polarisation rises when a labelled molecule tumbles more slowly, as on binding a larger partner.
In test [3] the target is WT_IS domain (residue 83–137 in full-length PAK1 sequence) (UniProt Q13153). The experiment in a line: ITC.
The target of a further test is CFP-PAcKer [GFP: P42212]. The experiment in a line: ITC.
For another test, the target named is IS_hairpin. Description: ITC. A general note: ITC needs no label: the signal is the heat of the interaction.
In test [4] the target is alternative design: trunc-WT_IS-2 domain (PAK1 residues 87–137) inserted into CFP with glycine-serine linkers [GFP: P42212]. Description: ITC.
In the next test the target is IS_helix. The experiment in a line: ITC.

Take “PAK1 kinase domain (K298R mutant), residues 250–545 (from UniProt Q13153 250-545) (domain or fragment)”: the Kd in test [1] came to 600 nM; in test [2], 15000 nM; in test [3], 4000 nM; with CFP-PAcKer [GFP: P42212], 400 nM; with IS_hairpin, 2600 nM; in test [4], 1650 nM. The same substance displayed a dissociation constant (Kd) with IS_helix of 1600 nM.
On to “PAK1^V127E/S144E (full-length PAK1 stabilized in the 'open' state, kinase dead K298R) (from UniProt Q13153 1-545) (enzyme)”, for which the dissociation constant Kd with CFP-PAcKer [GFP: P42212] is 3300 nM.
